# Substitutions are numbered along the chain they refer to.
# B1: Hu2117HK-Mu08 (Fc fusion)
# scFv: EVQLVESGGGLVQPGGSLRLSCAASGFTYSSYGMSWVRQAPGKGLEWVASISGGGSYTKYADSVKGRFTISRDNSKNTLYLQMNSLRAEDTAVYYCARDYAGFFDVWGQGTLVTVSSGGGGSGGGGSGGGGSDIQMTQSPSSLSASVGDRVTITCRSSQSLVHSNGNTYLHWYQQKPGKAPKLLIYKVSNRFSGVPSRFSGSGSGTDFTLTISSLQPEDFATYFCSQSTHVPYTFGQGTKVEIK
# notes: scFv-hIgG1 Fc; not shown: human IgG1 Fc
# B2: Hu2117HK-Mu19 (Fc fusion, name in Kabat numbering)
# scFv: B1 scFv with A61P, N165Q
# notes: as for B1
# B3: Hu2117HK-Mu38 (Fc fusion)
# scFv: B1 scFv with S30N, S31N, A61P
# notes: as for B1
# B4: Hu2117HK-Mu43 (Fc fusion, name in Kabat numbering)
# scFv: B1 scFv with A61P, A101D
# notes: as for B1
# B5: Hu2117HK-Mu39 (Fc fusion)
# scFv: B1 scFv with S31N, A61P
# notes: as for B1
# B6: Hu2117HK-Mu29 (Fc fusion)
# scFv: B1 scFv with A61P, V162L
# notes: as for B1
# B7: Hu2117HK-Mu21 (Fc fusion, name in Kabat numbering)
# scFv: B1 scFv with A61P, N165T
# notes: as for B1
# B8: Hu2117HK-Mu42 (Fc fusion)
# scFv: B1 scFv with G54S, A61P
# notes: as for B1
# B9: Hu2117HK-Mu10 (Fc fusion)
# scFv: B1 scFv with A61V
# notes: as for B1
# B10: Hu2117HK-Mu28 (Fc fusion)
# scFv: B1 scFv with A61P, G166T
# notes: as for B1
# B11: Hu2117HK-Mu25 (Fc fusion)
# scFv: B1 scFv with A61P, G166S
# notes: as for B1
# B12: Hu2117HK-Mu17 (Fc fusion, name in Kabat numbering)
# scFv: B1 scFv with A61P, N165I
# notes: as for B1
# B13: Hu2117HK-Mu36 (Fc fusion, name in Kabat numbering)
# scFv: B1 scFv with A61P, S226M
# notes: as for B1
# B14: Hu2117HK-Mu45 (Fc fusion)
# scFv: B1 scFv with A61P, A101I
# notes: as for B1
# B15: Hu2117HK-Mu27 (Fc fusion)
# scFv: B1 scFv with A61P, G166R
# notes: as for B1
# B16: Hu2117HK-Mu34 (Fc fusion)
# scFv: B1 scFv with A61P, S226Q
# notes: as for B1
# B17: Hu2117HK-Mu24 (Fc fusion)
# scFv: B1 scFv with A61P, G166I
# notes: as for B1
# B18: Hu2117HK-Mu12 (Fc fusion)
# scFv: B1 scFv with A61P, F192P
# notes: as for B1
# B19: Hu2117HK-Mu35 (Fc fusion, name in Kabat numbering)
# scFv: B1 scFv with A61P, S226L
# notes: as for B1
# B20: Hu2117HK-Mu11 (Fc fusion)
# scFv: B1 scFv with A61P, F192D
# notes: as for B1
# B21: Hu2117HK-Mu09 (Fc fusion)
# scFv: B1 scFv with A61G
# notes: as for B1
# B22: Hu2117HK-Mu22 (Fc fusion, name in Kabat numbering)
# scFv: B1 scFv with A61P, N165V
# notes: as for B1
# B23: Hu2117HK-Mu48 (Fc fusion)
# scFv: B1 scFv with A61P, A101R
# notes: as for B1
# B24: Hu2117HK-Mu50 (Fc fusion)
# scFv: B1 scFv with A61P, A101V
# notes: as for B1
# B25: Hu2117HK-Mu20 (Fc fusion, name in Kabat numbering)
# scFv: B1 scFv with A61P, N165S
# notes: as for B1
# B26: Hu2117HK-Mu16 (Fc fusion, name in Kabat numbering)
# scFv: B1 scFv with A61P, N165G
# notes: as for B1
# B27: Hu2117HK-Mu47 (Fc fusion, name in Kabat numbering)
# scFv: B1 scFv with A61P, A101Q
# notes: as for B1
# B28: Hu2117HK-Mu14 (Fc fusion)
# scFv: B1 scFv with A61P, D62G
# notes: as for B1
# B29: Hu2117HK-Mu49 (Fc fusion)
# scFv: B1 scFv with A61P, A101S
# notes: as for B1
# B30: Hu2117HK-Mu30 (Fc fusion, not shown: a dimerising Fc or GST; small tags and cut ends)
# scFv: B1 scFv with A61P, H163D
# notes: scFv-hIgG1 Fc
# B31: Hu2117HK-Mu40 (Fc fusion)
# scFv: B1 scFv with S31D, A61P
# notes: as for B1
# B32: Hu2117HK-Mu13 (Fc fusion)
# scFv: B1 scFv with A61P, F224Y
# notes: scFv-hIgG1 Fc; also called Hu2117HK-Mul3; not shown: human IgG1 Fc
# B33: Hu2117HK-Mu46 (Fc fusion)
# scFv: B1 scFv with A61P, A101N
# notes: as for B1
# B34: Hu2117HK-Mu32 (Fc fusion)
# scFv: B1 scFv with A61P, H163S
# notes: as for B1
# B35: Hu2117HK-Mu44 (Fc fusion, name in Kabat numbering)
# scFv: B1 scFv with A61P, A101E
# notes: as for B1
# B36: Hu2117HK-Mu18 (Fc fusion, name in Kabat numbering)
# scFv: B1 scFv with A61P, N165L
# notes: as for B1
# B37: Hu2117HK-Mu23 (Fc fusion)
# scFv: B1 scFv with A61P, G166A
# notes: as for B1
# B38: Hu2117HK-Mu41 (Fc fusion)
# scFv: B1 scFv with S56N, T58A, A61P
# notes: as for B1
# B39: Hu2126-H2K1-L71-H72b-Mu10 (antibody, IgG1, V domains shown)
# VH: QVQLVQSGSELKKPGASVKVSCKASGYTFTDYSMHWVRQAPGQGLEWMGWINTGTGEPTYADDFKGRFTISRDTSKSTAYLQISSLKAEDTAVYYCVRVGRYDYAMDYWGQGTTVTVSS
# VL: DIQMTQSPSSLSASVGDRVTITCRASQDVYTAVAWYQQKPGKAPKLLINAASSRPTGVPSRFSGSGSGTDFTLTISSLQPEDFATYYCQQYYSTPPTFGGGTKVEIK
# notes: IgG1/Cκ; also called 7172b-Mu10
# B40: Hu2126-H2K1-L71-H72b-Mu15 (antibody, IgG1, V domains shown)
# VH: B39 VH
# VL: B39 VL with A50Q
# notes: IgG1/Cκ; also called 7172b-Mu15
# B41: Hu2126-H2K1-L71-H72b-Mu12 (antibody, IgG1, V domains shown)
# VH: B39 VH
# VL: B39 VL with A50E
# notes: IgG1/Cκ; also called 7172b-Mu12
# B42: Hu2126-H2K1-L71-H72b-Mu11 (antibody, IgG1, V domains shown)
# VH: B39 VH
# VL: B39 VL with A50D
# notes: IgG1/Cκ; also called 7172b-Mu11
# B43: Hu2126-H2K1-L71-H72b-Mu14 (antibody, IgG1, V domains shown)
# VH: B39 VH
# VL: B39 VL with A50L
# notes: IgG1/Cκ; also called 7172b-Mu14; Hu2126-7172b-Mu14
# B44: Hu2126-H2K1-L71-H72b-Mu13 (antibody, IgG1, V domains shown)
# VH: B39 VH
# VL: B39 VL with A50K
# notes: IgG1/Cκ; also called 7172b-Mu13
# Target: T1, recombinant human HER2 extracellular domain protein (human, UniProt P04626 23-652)
# T1 construct: range 23-652; Range is printed for the immunogen/panning protein; also called ErbB2; recombinant HER2 protein
# Assay: BLI, Protein A capture
Kd [nM],koff [s⁻¹],kon [M⁻¹ s⁻¹],Binder
6.65,0.000495,74500,B1
13.9,0.000837,60100,B2
12.1,0.00121,100000,B3
56.7,0.00406,71700,B4
12.3,0.0012,97700,B5
7.62,0.000668,87700,B6
12,0.00056,46800,B7
33.5,0.00178,53000,B8
7.05,0.000546,77400,B9
7.15,0.000592,82800,B10
6.73,0.00056,83100,B11
14.9,0.000738,49500,B12
31.4,0.00198,63200,B13
12.8,0.00126,98000,B14
7.38,0.000592,80200,B15
12.6,0.00117,93500,B16
6.65,0.000423,63700,B17
6.4,0.000453,70800,B18
59.8,0.0037,61900,B19

Kd [nM],koff [s⁻¹],kon [M⁻¹ s⁻¹],Binder
9.41,0.000803,85400,B20
6.38,0.000468,73400,B21
13.4,0.00059,43900,B22
12.1,0.00118,97900,B23
16,0.0016,100000,B24
13.3,0.000616,46500,B25
8.76,0.00051,58200,B26
15.3,0.000828,54300,B27
7.16,0.000624,87200,B28
11.8,0.000761,64500,B29
8.27,0.000301,36400,B30
11.9,0.000867,72700,B31
6.05,0.000484,80100,B32
10.3,0.000794,77400,B33
6.09,0.000366,60100,B34
42.5,0.0034,80000,B35
11.4,0.000483,42600,B36
6.67,0.000542,81200,B37
9.66,0.000603,62400,B38

# Target: T1, recombinant human HER2 extracellular …
# Assay: BLI, Protein A capture
# Remark: another data set of the same source
Kd [nM],koff [s⁻¹],kon [M⁻¹ s⁻¹],Binder
3.38,0.000356,105000,B39
4.49,,106000,B40
6.74,,78300,B41
5.35,0.000482,90100,B42
0.825,8.31e-05,101000,B43
7.23,0.000707,97800,B44

# Source: patent EP4725969A1 (Latticon (Suzhou) Biopharmaceuticals Co., Ltd., dated 2024)
